Data: article doi:10.1101/2021.02.17.431740

What was measured:
[1] = molecular target: HA-tagged PEAK3 Y24 mutant (SH2 binding motif mutant; DKO MCF-10A cells) (UniProt Q6ZS72); assay: co-IP
[2] = molecular target: HA-tagged PEAK3 SH3(1) mutant (DKO MCF-10A cells) (UniProt Q6ZS72); assay: co-IP

PYK2 (MCF-10A cells), sequence (Q14289 whole entry): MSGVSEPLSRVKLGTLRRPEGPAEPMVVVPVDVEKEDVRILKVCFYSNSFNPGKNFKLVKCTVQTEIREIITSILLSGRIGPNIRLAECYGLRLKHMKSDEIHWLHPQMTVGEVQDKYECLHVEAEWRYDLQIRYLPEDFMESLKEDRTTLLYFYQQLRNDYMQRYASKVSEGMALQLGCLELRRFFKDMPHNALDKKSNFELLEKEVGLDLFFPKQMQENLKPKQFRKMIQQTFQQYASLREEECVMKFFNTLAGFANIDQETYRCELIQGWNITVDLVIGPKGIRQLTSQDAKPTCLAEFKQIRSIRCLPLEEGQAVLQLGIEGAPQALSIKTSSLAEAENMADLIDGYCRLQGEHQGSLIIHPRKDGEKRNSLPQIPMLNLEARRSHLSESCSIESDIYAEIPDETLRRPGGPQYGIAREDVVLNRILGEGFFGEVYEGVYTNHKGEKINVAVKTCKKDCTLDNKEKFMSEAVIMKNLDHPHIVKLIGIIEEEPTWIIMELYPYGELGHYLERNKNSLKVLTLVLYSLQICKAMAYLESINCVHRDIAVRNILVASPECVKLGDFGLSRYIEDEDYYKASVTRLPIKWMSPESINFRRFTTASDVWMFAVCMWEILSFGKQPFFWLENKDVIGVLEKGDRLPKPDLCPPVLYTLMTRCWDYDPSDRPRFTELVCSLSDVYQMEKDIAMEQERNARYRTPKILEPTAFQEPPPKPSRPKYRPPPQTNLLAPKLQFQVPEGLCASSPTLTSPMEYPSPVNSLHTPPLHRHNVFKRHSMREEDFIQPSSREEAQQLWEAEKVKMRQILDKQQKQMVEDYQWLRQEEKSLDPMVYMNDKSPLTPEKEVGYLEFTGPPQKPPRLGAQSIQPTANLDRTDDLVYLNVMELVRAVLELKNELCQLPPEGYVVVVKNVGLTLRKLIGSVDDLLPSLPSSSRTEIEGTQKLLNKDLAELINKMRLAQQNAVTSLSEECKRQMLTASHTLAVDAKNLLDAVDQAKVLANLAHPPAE
CrkII (MCF-10A cells), sequence (P46108 whole entry): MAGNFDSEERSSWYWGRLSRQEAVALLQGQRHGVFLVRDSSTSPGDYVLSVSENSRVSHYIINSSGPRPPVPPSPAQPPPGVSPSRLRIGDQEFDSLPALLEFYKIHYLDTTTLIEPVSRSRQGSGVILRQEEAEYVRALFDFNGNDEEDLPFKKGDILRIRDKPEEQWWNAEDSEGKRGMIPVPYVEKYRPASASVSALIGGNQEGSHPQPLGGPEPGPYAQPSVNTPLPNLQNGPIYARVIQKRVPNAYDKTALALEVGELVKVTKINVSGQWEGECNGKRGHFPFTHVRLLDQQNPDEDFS

## CrkII (MCF-10A cells) (from UniProt P46108-1 1-304) (natural protein)
[1]
  association relative to WT PEAK3 (control): 40 % of control

## PYK2 (MCF-10A cells) (from UniProt Q14289 1-1009) (natural protein)
[2]
  recruitment relative to WT PEAK3: 50%
